The values that follow come from patent US20180022800A1.

The target of this test is recombinant mouse OSM (mouse) (UniProt P53347). Put plainly: cell-based or functional assay.
Chain of UniProt P53347 (P53347 24-206 limits assumed): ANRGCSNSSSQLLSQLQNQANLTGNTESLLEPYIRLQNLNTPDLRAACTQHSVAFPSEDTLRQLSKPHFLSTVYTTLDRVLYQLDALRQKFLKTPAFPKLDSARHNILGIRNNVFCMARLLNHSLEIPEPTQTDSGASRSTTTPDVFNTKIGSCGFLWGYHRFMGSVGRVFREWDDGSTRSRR

Turning to “O-RFP (recombinant murine OSM receptor fusion protein) (from UniProt O70458 24-426; Q00560 123-322) (Fc fusion)”, the molar ratio of neutralizing agent required for 50% neutralization (SOCS3 expression in mouse colonic fibroblasts treated with 10 ng/ml recombinant mouse OSM, 2 hours) (molar ratio (neutralizing agent:OSM)) came out at 1.7.
